Source: US20260028406A1

Legend:
[1] = biological target: purified human tenascin C protein (human) (UniProt P24821); assay: ELISA, plates coated with 3 ug/ml purified human TNC, increasing VHH concentration
[2] = biological target: purified human tenascin C protein (human) (UniProt P24821); assay: BLI (biolayer interferometry); format not described
[3] = biological target: EIIIB domain of fibronectin; assay: as above
Chain of EIIIB domain of fibronectin (P02751 1271-1359): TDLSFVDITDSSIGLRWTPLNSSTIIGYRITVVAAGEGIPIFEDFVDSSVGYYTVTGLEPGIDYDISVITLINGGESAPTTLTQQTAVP

Chain of purified human tenascin C protein (human) (P24821 23-2201): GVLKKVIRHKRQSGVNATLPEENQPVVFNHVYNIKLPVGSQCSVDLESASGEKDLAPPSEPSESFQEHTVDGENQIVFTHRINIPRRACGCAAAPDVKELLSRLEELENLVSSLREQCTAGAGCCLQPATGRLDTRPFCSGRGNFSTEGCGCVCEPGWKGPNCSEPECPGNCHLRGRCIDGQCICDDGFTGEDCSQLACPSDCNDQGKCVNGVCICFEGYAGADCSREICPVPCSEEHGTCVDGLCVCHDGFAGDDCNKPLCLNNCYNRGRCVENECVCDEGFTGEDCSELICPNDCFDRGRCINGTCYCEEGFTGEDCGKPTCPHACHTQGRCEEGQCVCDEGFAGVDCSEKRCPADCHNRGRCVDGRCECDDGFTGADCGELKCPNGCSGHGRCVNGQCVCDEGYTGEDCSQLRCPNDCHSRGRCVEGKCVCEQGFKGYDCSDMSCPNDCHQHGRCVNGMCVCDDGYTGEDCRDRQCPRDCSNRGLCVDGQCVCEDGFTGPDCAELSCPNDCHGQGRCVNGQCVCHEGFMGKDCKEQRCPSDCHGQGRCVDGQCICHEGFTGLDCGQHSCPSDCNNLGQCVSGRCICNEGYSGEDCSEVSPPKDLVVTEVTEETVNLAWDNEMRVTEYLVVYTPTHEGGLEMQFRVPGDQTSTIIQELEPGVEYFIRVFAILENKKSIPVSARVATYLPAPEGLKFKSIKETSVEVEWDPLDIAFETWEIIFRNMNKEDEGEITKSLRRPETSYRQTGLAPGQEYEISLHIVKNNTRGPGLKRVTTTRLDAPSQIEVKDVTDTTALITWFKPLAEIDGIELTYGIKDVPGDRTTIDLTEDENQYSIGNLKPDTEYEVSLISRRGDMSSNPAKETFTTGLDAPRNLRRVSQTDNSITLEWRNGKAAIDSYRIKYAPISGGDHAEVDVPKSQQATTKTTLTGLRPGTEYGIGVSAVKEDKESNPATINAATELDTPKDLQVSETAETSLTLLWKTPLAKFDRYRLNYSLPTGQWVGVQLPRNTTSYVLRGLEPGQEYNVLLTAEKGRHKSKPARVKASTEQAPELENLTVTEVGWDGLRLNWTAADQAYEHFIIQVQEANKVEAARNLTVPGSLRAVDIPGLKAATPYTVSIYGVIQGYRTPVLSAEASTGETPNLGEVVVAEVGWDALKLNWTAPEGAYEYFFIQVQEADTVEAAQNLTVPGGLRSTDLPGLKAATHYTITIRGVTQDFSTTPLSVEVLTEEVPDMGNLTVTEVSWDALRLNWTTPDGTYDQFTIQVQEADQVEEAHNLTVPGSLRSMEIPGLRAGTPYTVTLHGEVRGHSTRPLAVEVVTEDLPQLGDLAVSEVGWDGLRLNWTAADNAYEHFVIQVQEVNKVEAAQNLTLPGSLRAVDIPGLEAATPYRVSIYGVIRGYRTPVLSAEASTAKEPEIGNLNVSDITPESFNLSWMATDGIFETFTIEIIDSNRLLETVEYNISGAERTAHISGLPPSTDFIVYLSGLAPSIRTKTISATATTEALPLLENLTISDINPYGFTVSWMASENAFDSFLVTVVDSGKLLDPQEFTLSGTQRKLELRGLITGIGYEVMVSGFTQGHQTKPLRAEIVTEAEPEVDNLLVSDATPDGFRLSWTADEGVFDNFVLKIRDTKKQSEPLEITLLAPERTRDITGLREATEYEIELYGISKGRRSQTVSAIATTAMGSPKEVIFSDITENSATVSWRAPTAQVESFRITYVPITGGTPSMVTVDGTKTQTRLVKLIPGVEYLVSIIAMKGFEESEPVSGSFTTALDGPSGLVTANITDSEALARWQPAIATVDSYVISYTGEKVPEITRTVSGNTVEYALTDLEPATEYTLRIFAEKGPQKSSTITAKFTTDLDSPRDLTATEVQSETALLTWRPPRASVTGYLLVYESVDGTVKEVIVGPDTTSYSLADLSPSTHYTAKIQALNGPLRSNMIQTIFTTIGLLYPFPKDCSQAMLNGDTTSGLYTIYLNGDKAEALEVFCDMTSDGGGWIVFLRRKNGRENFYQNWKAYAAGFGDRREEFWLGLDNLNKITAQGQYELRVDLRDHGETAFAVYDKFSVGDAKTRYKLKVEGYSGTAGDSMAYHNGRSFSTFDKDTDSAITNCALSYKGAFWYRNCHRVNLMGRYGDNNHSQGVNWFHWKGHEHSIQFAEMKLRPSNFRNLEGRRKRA

Binder	EC50 (read off the curve) [1] [ng/mL]	Kd [2] [pM]	Kd [3] [pM]
NJT4 nanobody (VHH) (VHH) VHH: QVQLVESGGGLVQPGGSLRLSCAASGFTFSSYTMRWYRQAPGKERELVAFIGVAGGSTKYADSVKGRFTISRDNTKNTVYLQMNTLKPEDTAVYYCYAPLTPYWGQGTQVTVSS	–	< 1	–
NJB2 nanobody (VHH) (VHH) VHH: QVQLVETGGGLVQAGGSLRLSCAASGSTFSHNAGGWYRQAPEKQRELVAGISSDGNINYADSVKDRFTISRDNASNTMYLQMNNLKPEDTAVYVCNIRGSYGNTYYSRWGQGTQVTVSS	–	–	4000

Continued, values first:

EC50 (read off the curve) [1] [ng/mL]	Kd [2] [pM]	Kd [3] [pM]	Binder
0.01	< 1	–	NJT6 nanobody (VHH) (VHH) VHH: QVQLVETGGDLVQPGGSLRLSCAASGLTLDYYAIGWVRQAPGKEREGVSCITPQDGNTYYDDSVMGRFTILRDNAKNMVYLQMNNLKPEDTAVYFCAAAGALTLDPSEYEYWGQGTQVTVSS
0.02	< 1	–	NJT3 nanobody (VHH) (VHH) VHH: QVQLVETGGGLAQAGGSLRLSCAASGRTLSGYAMGWFRQAPGKEREFVAAISWSGRNTYYDYTVQGRFTISKDNAKNTVNLQMNSLKPEDTAVYYCAVSRSLDEFGDGYEMDYWGDGTQVTVSS
